Reference: paper PMC11531568, “Single-molecule imaging and molecular dynamics simulations reveal early activation of the MET receptor in cells” (Nature Communications, 2024)
Positions count from the first letter of the chain named. Names may count otherwise.

Biological target: the molecule itself
Assay: single-molecule photobleaching step analysis; U-2 OS cells labeled with a single Cy3B-labeled InlB321 variant; number of InlB321 in one spot on the plasma membrane

B1: InlB321 K280C variant (with C242A), fluorophore-labeled (domain or fragment)
chain: ETITVPTPIKQIFSDDAFAETIKDNLKKKSVTDAVTQNELNSIDQIIANNSDIKSVQGIQYLPNVTKLFLNGNKLTDIKPLANLKNLGWLFLDENKVKDLSSLKDLKKLKSLSLEHNGISDINGLVHLPQLESLYLGNNKITDITVLSRLTKLDTLSLEDNQISDIVPLAGLTKLQNLYLSKNHISDLRALAGLKNLDVLELFSQEALNKPINHQSNLVVPNTVKNTDGSLVTPEIISDDGDYECPNVKWHLPEFTNEVSFIFYQPVTIGKAKARFHGRVTQPLKE
modifications: Cy3B or ATTO 647N attached by maleimide chemistry to the single cysteine at position 280
notes: Internalin B (InlB), invasion protein of Listeria monocytogenes, amino acids 36-321 of the full-length InlB (cap, leucine-rich repeat and inter-repeat region); The donor-labeled (Cy3B) and acceptor-labeled (ATTO 647N) batches of this variant are written as one molecule; Vector pETM30; also called T variant; tail
In the case of B1, the “stoichiometry N” value is reported as 2.

B2: InlB321 K64C variant (with C242A), fluorophore-labeled (domain or fragment)
chain: B1 chain with K29C, C245K
modifications: Cy3B or ATTO 647N attached by maleimide chemistry to the single cysteine at position 64
notes: Internalin B (InlB), invasion protein of Listeria monocytogenes, amino acids 36-321 of the full-length InlB (cap, leucine-rich repeat and inter-repeat region); The donor-labeled (Cy3B) and acceptor-labeled (ATTO 647N) batches of this variant are written as one molecule; Vector pETM30; also called H variant; head
With B2 the “stoichiometry N” value was 2.
